Test results: article doi:10.1101/2025.03.07.642025, “The TONSL-MMS22L complex and FANCM form an interdependent complex on chromatin to counter replication stress” (bioRxiv, 2025)
Each block holds one binder with its values, some of them ahead of it.

Columns and labels:
[1] = molecular target: T1, FANCM (human (endogenous in HeLa), UniProt Q8IYD8 1-2048); test: proximity ligation; Duolink PLA in HeLa cells treated with 1.5 uM TMP and UVA (3 J/cm2), 60 min in fresh medium before fixation; details: partners not purified
T1 construct: FANCM, human, endogenous in HeLa cells; also called endogenous FANCM; source: endogenous, HeLa

[2] = molecular target: T1, FANCM; test: proximity ligation; PLA in TMP/UVA-treated cells, early and late S phase sorted by flow cytometry; PCNA as marker of the S phase stage; details: partners not purified

T1 sequence (Q8IYD8 whole entry): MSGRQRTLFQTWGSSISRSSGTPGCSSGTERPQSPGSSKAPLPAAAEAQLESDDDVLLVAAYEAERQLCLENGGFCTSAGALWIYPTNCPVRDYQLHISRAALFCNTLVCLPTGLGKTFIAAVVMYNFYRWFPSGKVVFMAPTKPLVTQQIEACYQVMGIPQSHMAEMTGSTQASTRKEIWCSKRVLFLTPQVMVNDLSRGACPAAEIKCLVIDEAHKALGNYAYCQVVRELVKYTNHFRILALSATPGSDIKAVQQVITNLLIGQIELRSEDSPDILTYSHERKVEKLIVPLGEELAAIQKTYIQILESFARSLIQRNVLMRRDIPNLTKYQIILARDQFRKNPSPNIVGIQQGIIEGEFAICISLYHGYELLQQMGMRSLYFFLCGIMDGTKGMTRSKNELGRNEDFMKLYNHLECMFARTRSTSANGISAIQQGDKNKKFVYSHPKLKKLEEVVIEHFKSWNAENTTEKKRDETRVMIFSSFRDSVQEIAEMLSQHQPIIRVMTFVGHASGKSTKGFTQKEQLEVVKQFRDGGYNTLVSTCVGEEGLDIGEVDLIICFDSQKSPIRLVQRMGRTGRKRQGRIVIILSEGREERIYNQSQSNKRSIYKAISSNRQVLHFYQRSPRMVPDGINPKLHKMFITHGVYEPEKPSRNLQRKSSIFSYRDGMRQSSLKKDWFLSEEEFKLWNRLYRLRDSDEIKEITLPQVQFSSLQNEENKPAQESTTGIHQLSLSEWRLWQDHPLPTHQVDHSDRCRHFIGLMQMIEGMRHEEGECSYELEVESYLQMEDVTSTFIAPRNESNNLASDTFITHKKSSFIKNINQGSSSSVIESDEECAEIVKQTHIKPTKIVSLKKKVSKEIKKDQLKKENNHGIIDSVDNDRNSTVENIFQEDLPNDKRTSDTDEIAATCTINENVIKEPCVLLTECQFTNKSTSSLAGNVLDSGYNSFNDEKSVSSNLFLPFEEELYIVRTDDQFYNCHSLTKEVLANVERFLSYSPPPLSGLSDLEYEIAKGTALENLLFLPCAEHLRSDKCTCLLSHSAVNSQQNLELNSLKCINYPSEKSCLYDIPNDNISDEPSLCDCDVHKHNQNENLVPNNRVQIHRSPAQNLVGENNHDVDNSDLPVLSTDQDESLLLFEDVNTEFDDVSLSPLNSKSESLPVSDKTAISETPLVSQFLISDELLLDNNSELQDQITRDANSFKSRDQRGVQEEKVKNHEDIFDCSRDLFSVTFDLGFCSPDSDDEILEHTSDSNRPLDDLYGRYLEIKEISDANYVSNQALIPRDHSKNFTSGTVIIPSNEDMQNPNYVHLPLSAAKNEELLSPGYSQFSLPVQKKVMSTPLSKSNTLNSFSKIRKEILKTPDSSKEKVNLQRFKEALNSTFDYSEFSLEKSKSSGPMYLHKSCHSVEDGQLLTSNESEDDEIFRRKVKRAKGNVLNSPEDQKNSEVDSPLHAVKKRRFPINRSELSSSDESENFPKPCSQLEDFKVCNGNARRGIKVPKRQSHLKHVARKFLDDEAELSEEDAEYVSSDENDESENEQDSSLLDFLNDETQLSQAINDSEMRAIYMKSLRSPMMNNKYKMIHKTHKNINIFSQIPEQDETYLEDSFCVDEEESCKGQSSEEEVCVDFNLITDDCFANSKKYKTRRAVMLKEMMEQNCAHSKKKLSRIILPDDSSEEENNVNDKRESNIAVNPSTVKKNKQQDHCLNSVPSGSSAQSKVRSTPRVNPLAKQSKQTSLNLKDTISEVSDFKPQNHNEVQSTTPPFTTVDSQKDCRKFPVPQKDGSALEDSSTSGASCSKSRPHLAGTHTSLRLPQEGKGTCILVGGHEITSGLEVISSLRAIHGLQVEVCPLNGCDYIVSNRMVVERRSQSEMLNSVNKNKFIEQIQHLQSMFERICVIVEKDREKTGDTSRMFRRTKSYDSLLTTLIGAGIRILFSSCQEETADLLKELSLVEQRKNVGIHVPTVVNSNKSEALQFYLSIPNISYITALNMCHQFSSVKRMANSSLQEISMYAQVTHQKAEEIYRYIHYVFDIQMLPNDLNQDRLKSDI

fold increase of PLA signals, TMP/UVA-treated over UVA-treated cells [1]: ~20 fold
fold increase of PLA signals, late S over early S phase [2]: ~20 fold
B1: TONSL (natural protein, human (endogenous in HeLa), UniProt Q96HA7 1-1378, looked up)
chain: MSLERELRQLSKAKAKAQRAGQRREEAALCHQLGELLAGHGRYAEALEQHWQELQLRERADDPLGCAVAHRKIGERLAEMEDYPAALQHQHQYLELAHSLRNHTELQRAWATIGRTHLDIYDHCQSRDALLQAQAAFEKSLAIVDEELEGTLAQGELNEMRTRLYLNLGLTFESLQQTALCNDYFRKSIFLAEQNHLYEDLFRARYNLGTIHWRAGQHSQAMRCLEGARECAHTMRKRFMESECCVVIAQVLQDLGDFLAAKRALKKAYRLGSQKPVQRAAICQNLQHVLAVVRLQQQLEEAEGRDPQGAMVICEQLGDLFSKAGDFPRAAEAYQKQLRFAELLDRPGAERAIIHVSLATTLGDMKDHHGAVRHYEEELRLRSGNVLEEAKTWLNIALSREEAGDAYELLAPCFQKALSCAQQAQRPQLQRQVLQHLHTVQLRLQPQEAPETETRLRELSVAEDEDEEEEAEEAAATAESEALEAGEVELSEGEDDTDGLTPQLEEDEELQGHLGRRKGSKWNRRNDMGETLLHRACIEGQLRRVQDLVRQGHPLNPRDYCGWTPLHEACNYGHLEIVRFLLDHGAAVDDPGGQGCEGITPLHDALNCGHFEVAELLLERGASVTLRTRKGLSPLETLQQWVKLYRRDLDLETRQKARAMEMLLQAAASGQDPHSSQAFHTPSSLLFDPETSPPLSPCPEPPSNSTRLPEASQAHVRVSPGQAAPAMARPRRSRHGPASSSSSSEGEDSAGPARPSQKRPRCSATAQRVAAWTPGPASNREAATASTSRAAYQAAIRGVGSAQSRLGPGPPRGHSKALAPQAALIPEEECLAGDWLELDMPLTRSRRPRPRGTGDNRRPSSTSGSDSEESRPRARAKQVRLTCMQSCSAPVNAGPSSLASEPPGSPSTPRVSEPSGDSSAAGQPLGPAPPPPIRVRVQVQDHLFLIPVPHSSDTHSVAWLAEQAAQRYYQTCGLLPRLTLRKEGALLAPQDLIPDVLQSNDEVLAEVTSWDLPPLTDRYRRACQSLGQGEHQQVLQAVELQGLGLSFSACSLALDQAQLTPLLRALKLHTALRELRLAGNRLGDKCVAELVAALGTMPSLALLDLSSNHLGPEGLRQLAMGLPGQATLQSLEELDLSMNPLGDGCGQSLASLLHACPLLSTLRLQACGFGPSFFLSHQTALGSAFQDAEHLKTLSLSYNALGAPALARTLQSLPAGTLLHLELSSVAAGKGDSDLMEPVFRYLAKEGCALAHLTLSANHLGDKAVRDLCRCLSLCPSLISLDLSANPEISCASLEELLSTLQKRPQGLSFLGLSGCAVQGPLGLGLWDKIAAQLRELQLCSRRLCAEDRDALRQLQPSRPGPGECTLDHGSKLFFRRL
notes: TONSL, human, endogenous in HeLa cells; source: endogenous, HeLa

fold increase of PLA signals, TMP/UVA-treated over UVA-treated cells [1]: ~20 fold
fold increase of PLA signals, late S over early S phase [2]: ~20 fold
B2: MMS22L (natural protein, human (endogenous in HeLa), UniProt Q6ZRQ5 1-1243, looked up)
chain: MENCSAASTFLTDSLELELGTEWCKPPYFSCAVDNRGGGKHFSGESYLCSGALKRLILNLDPLPTNFEEDTLEIFGIQWVTETALVNSSRELFHLFRQQLYNLETLLQSSCDFGKVSTLHCKADNIRQQCVLFLHYVKVFIFRYLKVQNAESHVPVHPYEALEAQLPSVLIDELHGLLLYIGHLSELPSVNIGAFVNQNQIKLFPPSWHLLHLHLDIHWLVLEILYMLGEKLKQVVYGHQFMNLASDNLTNISLFEEHCETLLCDLISLSLNRYDKVRSSESLMSDQCPCLCIKELWVLLIHLLDHRSKWFVSESFWNWLNKLLKTLLEKSSDRRRSSMPVIQSRDPLGFSWWIITHVASFYKFDRHGVPDEMRKVESNWNFVEELLKKSISVQGVILEEQLRMYLHCCLTLCDFWEPNIAIVTILWEYYSKNLNSSFSISWLPFKGLANTMKSPLSMLEMVKTCCCDKQDQELYKSSSSYTIFLCILAKVVKKAMKSNGPHPWKQVKGRIYSKFHQKRMEELTEVGLQNFFSLFLLLAAVAEVEDVASHVLDLLNFLKPAFVTSQRALIWKGHMAFLLMYAQKNLDIGVLAEKFSCAFREKAKEFLVSKNEEMVQRQTIWTLLSIYIDGVQEVFETSYCLYPSHEKLLNDGFSMLLRACRESELRTVLSFLQAVLARIRSMHQQLCQELQRDNVDLFVQSSLSAKERHLAAVASALWRHFFSFLKSQRMSQVVPFSQLADAAADFTLLAMDMPSTAPSDFQPQPVISIIQLFGWDDIICPQVVARYLSHVLQNSTLCEALSHSGYVSFQALTVRSWIRCVLQMYIKNLSGPDDLLIDKNLEEAVEKEYMKQLVKLTRLLFNLSEVKSIFSKAQVEYLSISEDPKKALVRFFEAVGVTYGNVQTLSDKSAMVTKSLEYLGEVLKYIKPYLGKKVFSAGLQLTYGMMGILVKSWAQIFATSKAQKLLFRIIDCLLLPHAVLQQEKELPAPMLSAIQKSLPLYLQGMCIVCCQSQNPNAYLNQLLGNVIEQYIGRFLPASPYVSDLGQHPVLLALRNTATIPPISSLKKCIVQVIRKSYLEYKGSSPPPRLASILAFILQLFKETNTDIYEVELLLPGILKCLVLVSEPQVKRLATENLQYMVKACQVGSEEEPSSQLTSVFRQFIQDYGMRYYYQVYSILETVATLDQQVVIHLISTLTQSLKDSEQKWGLGRNIAQREAYSKLLSHLGQMGQDEMQRLENDNT
notes: MMS22L, human, endogenous in HeLa cells; source: endogenous, HeLa
